Experimental data published in US20060148057A1 (published 2006).

T1: HA-tagged ASK1-WT (UniProt Q99683 1-1374)
T1 sequence (looked up): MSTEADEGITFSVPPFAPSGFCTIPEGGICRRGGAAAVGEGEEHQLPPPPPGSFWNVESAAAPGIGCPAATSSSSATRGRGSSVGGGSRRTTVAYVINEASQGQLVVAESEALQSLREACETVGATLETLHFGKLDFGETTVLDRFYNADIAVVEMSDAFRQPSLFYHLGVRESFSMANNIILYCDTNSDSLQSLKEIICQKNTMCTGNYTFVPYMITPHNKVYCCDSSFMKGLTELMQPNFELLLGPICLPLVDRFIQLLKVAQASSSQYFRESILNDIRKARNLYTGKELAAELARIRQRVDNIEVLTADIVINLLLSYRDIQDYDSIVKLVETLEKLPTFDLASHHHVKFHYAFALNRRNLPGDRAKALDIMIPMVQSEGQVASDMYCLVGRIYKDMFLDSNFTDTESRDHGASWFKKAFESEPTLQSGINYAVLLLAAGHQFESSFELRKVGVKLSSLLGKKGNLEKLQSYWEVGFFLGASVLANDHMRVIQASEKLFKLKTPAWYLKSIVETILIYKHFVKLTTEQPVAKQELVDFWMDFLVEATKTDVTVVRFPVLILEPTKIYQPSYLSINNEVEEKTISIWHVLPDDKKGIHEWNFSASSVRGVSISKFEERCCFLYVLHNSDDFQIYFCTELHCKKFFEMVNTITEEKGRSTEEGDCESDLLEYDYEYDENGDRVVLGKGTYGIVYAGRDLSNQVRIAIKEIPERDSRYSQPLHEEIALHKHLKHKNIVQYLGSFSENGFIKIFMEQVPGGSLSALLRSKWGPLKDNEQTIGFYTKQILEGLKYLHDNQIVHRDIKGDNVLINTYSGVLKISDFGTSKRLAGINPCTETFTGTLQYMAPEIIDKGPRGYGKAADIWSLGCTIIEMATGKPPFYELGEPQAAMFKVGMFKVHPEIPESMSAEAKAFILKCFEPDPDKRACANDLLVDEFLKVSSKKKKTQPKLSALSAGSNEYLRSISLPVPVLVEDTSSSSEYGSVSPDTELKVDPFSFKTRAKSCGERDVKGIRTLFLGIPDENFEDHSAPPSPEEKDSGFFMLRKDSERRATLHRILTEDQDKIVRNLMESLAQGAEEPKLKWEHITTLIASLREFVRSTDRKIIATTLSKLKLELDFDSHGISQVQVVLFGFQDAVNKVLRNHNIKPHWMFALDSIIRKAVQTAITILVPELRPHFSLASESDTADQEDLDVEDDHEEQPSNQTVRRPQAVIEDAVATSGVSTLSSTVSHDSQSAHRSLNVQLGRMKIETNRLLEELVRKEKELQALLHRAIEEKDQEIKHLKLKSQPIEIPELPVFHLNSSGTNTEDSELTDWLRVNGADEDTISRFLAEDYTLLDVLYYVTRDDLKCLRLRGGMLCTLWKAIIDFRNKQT


Legend:
HA-tagged ASK1-WT [1] = biological target: T1, HA-tagged ASK1-WT; assay: cell-based or functional assay
HA-tagged ASK1-WT [2] = biological target: T1, HA-tagged ASK1-WT; assay: co-immunoprecipitation from BAEC (anti-Flag IP, anti-HA blot)
HA-tagged ASK1-WT [3] = biological target: T1, HA-tagged ASK1-WT; assay: GST pull-down from BAEC lysate, anti-HA Western blot

| Binder | cell survival in ASK1-induced EC death (GFP co-transfection killing assay) (HA-tagged ASK1-WT [1]) [%] | inhibition of ASK1-induced caspase 3 activity (HA-tagged ASK1-WT [1]) [%] | binding result (HA-tagged ASK1-WT [2]) | binding result (HA-tagged ASK1-WT [3]) |
| --- | --- | --- | --- | --- |
| Flag-tagged Trx-WT (enzyme, not shown: small tags and cut ends) MVKQIESKTAFQEALDAAGDKLVVVDFSATWCGPCKMIKPFFHSLSEKYSNVIFLEVDVDDCQDVASECEVKCMPTFQFFKKGQKVGEFSGANKEKLEATINELV | 92 | 50 | – | – |
| Flag-tagged Trx-CS (enzyme, Expressed by transfection in BAEC; not shown: Flag tag of the Flag-vector) MVKQIESKTAFQEALDAAGDKLVVVDFSATWSGPSKMIKPFFHSLSEKYSNVIFLEVDVDDCQDVASECEVKCMPTFQFFKKGQKVGEFSGANKEKLEATINELV | – | – | no binding | – |
| GST-Trx-CS (enzyme, not shown: a dimerising Fc or GST; large carriers; small tags and cut ends, also called double-mutant of C32S and C35S) MVKQIESKTAFQEALDAAGDKLVVVDFSATWSGPSKMIKPFFHSLSEKYSNVIFLEVDVDDCQDVASECEVKCMPTFQFFKKGQKVGEFSGANKEKLEATINELV | – | – | – | no binding |
| Flag-tagged Trx-C32S (enzyme, not shown: small tags and cut ends) MVKQIESKTAFQEALDAAGDKLVVVDFSATWSGPCKMIKPFFHSLSEKYSNVIFLEVDVDDCQDVASECEVKCMPTFQFFKKGQKVGEFSGANKEKLEATINELV | 80 | 48 | – | – |
| Flag-tagged Trx-C35S (enzyme, not shown: small tags and cut ends) MVKQIESKTAFQEALDAAGDKLVVVDFSATWCGPSKMIKPFFHSLSEKYSNVIFLEVDVDDCQDVASECEVKCMPTFQFFKKGQKVGEFSGANKEKLEATINELV | 105 | 52 | – | – |
